# Experimental data taken from paper PMC3076674 (Nature structural & molecular biology, 2011).
# T1: MED25 VP16-binding domain (VBD) (human, UniProt Q71SY5 390-553)
# T1 sequence (looked up): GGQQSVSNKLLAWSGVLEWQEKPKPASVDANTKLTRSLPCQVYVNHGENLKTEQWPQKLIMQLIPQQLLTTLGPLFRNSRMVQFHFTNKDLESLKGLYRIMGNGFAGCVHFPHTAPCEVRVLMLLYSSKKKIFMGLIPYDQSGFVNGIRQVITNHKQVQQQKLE
# B1: VP16 TAD (full-length transactivation domain, amino acids 411-490) (domain or fragment, Herpes simplex virus 1, UniProt P06492 411-490, looked up)
# chain: STAPPTDVSLGDELHLDGEDVAMAHADALDDFDLDMLGDGDSPGPGFTPHDSAPYGALDMADFEFEQMFTDALGIDEYGG
# Biological target: T1, MED25 VP16-binding domain (VBD)
# Experiment: ITC
binder,measurement,value
B1,Kd,~50 nM
